Test results taken from the supplement of paper PMC12042874.
± gives the uncertainty stated by the source.

assay: amyloid nucleation score (Sup35N fusion, yeast selection) (log enrichment); library NNK1; higher = more nucleation; inactive = no reads after selection
Procedure, shortened: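 The nucleation score is a DiMSum log enrichment of output over input reads, centred on the mode score of non-aggregating sequences. Sequences under 100 input reads were excluded, and reads came from Illumina sequencing of plasmid inserts. Psi-negative yeast expressing Sup35N fused to peptides of 20 random codons were induced with 100 μM copper sulfate for 24 hours and grown 7 days at 30°C on medium lacking adenine and uracil. Random libraries had three technical output replicates.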

| Substance | amyloid nucleation score |
| --- | --- |
| EPSLERRRRPSEMVGAKGWI | -0.374 ± 1.1 |
| ERDCAMISNLSNLTVNY | -0.616 ± 0.36 |
| ERIRTHIRPIGCRRNLMVGW | 1.08 ± 0.63 |
| ERRLTTFCCMWANLGVADGT | 0.436 ± 1 |
| ERVSRSVGPACAREETKGST | 0.354 ± 0.77 |
| ESAHNWWNPVSSYL | 1.06 ± 0.58 |
| ESCKSVNCLMRQGDLRVTAW | -0.122 ± 0.3 |
| ESHLRASAGLWLSAGRDCNG | 1.38 ± 0.63 |
| ESLFLVCRPRRQVFIVSCRS | -0.716 ± 0.38 |
| ESMDSWDYVLNISAEMVYCR | 0.366 ± 0.54 |
| ESQSRGLMIVNGDFKD | 0.018 ± 0.37 |
| ESSGRGCVPSEKIDEHGPVT | -0.319 ± 1 |
| ESSNLYYYRTSHKKKTTLCS | -0.639 ± 1.7 |
| ESTLNRVRVTALETVQQCLS | 0.275 ± 1.2 |
| ETAEMIAVPDRAHF | 1.05 ± 0.57 |
| ETEGSELFNFWAGVNWRRIQ | -0.425 ± 1.3 |
| ETHVRAPSGGNAGPLRRGSS | -0.877 ± 0.52 |
| ETSGSPFILIICIYELNVVM | 4.61 ± 0.07 |
| ETTRNKAMNTFMLPFSQSCK | 0.39 ± 0.56 |
| EVAFRVTCCSCWLISRNVGR | 2.77 ± 0.15 |
| EVCVLRTLNRKNFDEPDNCI | 0.913 ± 0.56 |
| EVGNCFLESPGMVYVVGRDR | 0.51 ± 0.52 |

| Substance | amyloid nucleation score |
| --- | --- |
| EVIAGCGLRCRSSNHIVREM | 0.104 ± 0.36 |
| EVILFNGLRMRAVPETWAST | 0.587 ± 0.4 |
| EVNLHLGCVWLVRLCVSDDG | 2.08 ± 0.19 |
| EVQSDSSEVRDTEYMDISSW | inactive |
| EVWNRTWIGEENVTGPFVPR | -0.012 ± 0.24 |
| EWDSYMGPFAERMEYNVVFH | 0.398 ± 0.62 |
| EWRFCKS | -0.335 ± 0.33 |
| EWVALRCLDMEGAVAPLALV | 1.02 ± 0.28 |
| EYLLNNPVGRCFDLLFNSIG | -0.881 ± 0.66 |
| EYMFGYVSLSVDGSTLEFHD | 0.107 ± 0.24 |
| EYSADTIGVIGLGTAPDERR | -0.239 ± 0.84 |
| EYVVRYSCMWRE | 0.485 ± 1.2 |
| FAAVPYISVLIRRLCLPYRT | 1.07 ± 0.7 |
| FALIRN | -0.368 ± 1.7 |
| FALLFRLFRW | 0.539 ± 0.28 |
| FALVRTLTRSKSSFTTSQIK | 0.524 ± 0.47 |
| FANLVYGQLRVNDTLVSCT | -0.044 ± 0.33 |
| FAQECLFMSVDLCLR | 0.125 ± 1.1 |
| FAWGREVRLEIEY | 0.371 ± 0.31 |
| FAWSRAACFSIPVRISVSLG | 1.14 ± 0.72 |
| FCIYVLFFRSVDYPLRVVEL | -0.529 ± 0.67 |
| FCLMMEVGSVLRNLVPVSFR | -0.122 ± 1.4 |

| Substance | amyloid nucleation score |
| --- | --- |
| FCQGYRLGS | 0.19 ± 0.48 |
| FCSNPAGWSSWSPE | 0.182 ± 0.9 |
| FCTHHWG | -0.382 ± 0.6 |
| FDAMSANLESIYFSFNENMY | -0.572 ± 0.56 |
| FDATFVMLRSRAFFKICKER | 0.751 ± 0.27 |
| FDIFVDLFFMGALSMRPAAQ | -0.241 ± 1.1 |
| FDNLWRQYYVIGWILARAFS | -0.983 ± 0.9 |
| FDQLEGLRCASSWKLLSSPG | 0.062 ± 0.8 |
| FDVLVIFGFDTNRDACSDAL | 0.174 ± 0.38 |
| FEECLM | -0.059 ± 0.44 |
| FEGAW | -0.187 ± 1 |
| FEGILIKFCFGAWESDKVTM | 1.36 ± 0.59 |
| FEHWCFRLPCVKDESCWD | 0.821 ± 0.8 |
| FELGWMYSYKMAKLPWYMTC | 0.362 ± 0.99 |
| FELTVGIWQHWRT | 0.45 ± 0.5 |
| FERCLNPGYCINFAGCESVV | 0.581 ± 0.51 |
| FESTNVLPISGTSAGSV | 1.18 ± 0.74 |
| FEYCCFSYEIVLELARFRGF | -0.535 ± 1.7 |
| FFAHNRTMSRRNQAFGF | 0.86 ± 1.1 |
| FFCLSIHVYSG | 0.46 ± 0.97 |
| FFCWTCSAINLYRLLGPPMF | 5.67 ± 0.064 |
| FFELYRVLCTNAFLWCKGYV | -0.423 ± 0.44 |

| Substance | amyloid nucleation score |
| --- | --- |
| FFHAIIWRLIYRQFPDFVG | 0.984 ± 0.43 |
| FFIICSYR | -0.868 ± 0.37 |
| FFILSFNIRIYIFEVVTFLK | 0.555 ± 0.52 |
| FFILYINSQLIREVILRRAH | -0.128 ± 0.23 |
| FFLAV | -0.158 ± 0.64 |
| FFLEAACYSIFGVEK | -0.612 ± 0.3 |
| FFLLIFSVRGNPFFIKW | -0.153 ± 0.66 |
| FFRDSHYIQRDKSQPSRGSN | -0.269 ± 1.1 |
| FFRMMKSLFQMRVRIDCRMG | -0.653 ± 1.4 |
| FFSSNNRWRTLYNLHCSEFA | 0.24 ± 0.56 |
| FFTIQMGYMALGMW | 1.16 ± 0.23 |
| FFVFSSLGHLV | 0.859 ± 0.26 |
| FFWHVS | 0.091 ± 0.65 |
| FGGKHFYVGGRFGLLNMCDF | -0.548 ± 2.1 |
| FGGSLMASFDCTRPSSMER | -0.606 ± 1.6 |
| FGIWIRGFRTYDECHPAHGC | 0.434 ± 0.41 |
| FGLHCINLNWVEKWFDIDGP | -0.245 ± 0.84 |
| FGMNLILHCTPTQRTYISPV | 2.83 ± 0.092 |
| FGNSFRSQGVSFM | 0.414 ± 0.32 |
